Changes are numbered by the printed parent chain.
Experiments:
[1] = target: T1, TAM-AT1-AT2 Baz2B (Homo sapiens, UniProt Q9UIF8 721-884); assay: MST; EMSA: 20 mM HEPES pH 7.5, 30 mM KCl, 1 mM EDTA, 10 mM (NH4)2SO4, 1 mM DTT, 4 C, 10 nM probe; MST: same plus 0.1 ug/ml BSA, 5 nM probe, 25 C; GST-AT-hook and bromodomain EMSA as in cited refs; conditions: protein: recombinant; tags: His6; label: 5' Cy5
T1 sequence: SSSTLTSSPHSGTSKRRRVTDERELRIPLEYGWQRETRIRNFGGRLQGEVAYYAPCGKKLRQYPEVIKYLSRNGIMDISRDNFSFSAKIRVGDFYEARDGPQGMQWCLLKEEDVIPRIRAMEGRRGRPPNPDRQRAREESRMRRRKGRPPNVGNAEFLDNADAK

[2] = target: T1, TAM-AT1-AT2 Baz2B; assay: EMSA; EMSA: 20 mM HEPES pH 7.5, 30 mM KCl, 1 mM EDTA, 10 mM (NH4)2SO4, 1 mM DTT, 4 C, 10 nM probe; MST: same plus 0.1 ug/ml BSA, 5 nM probe, 25 C; GST-AT-hook and bromodomain EMSA as in cited refs; conditions: protein: recombinant; tags: His6; label: 5' Cy5
[3] = target: T2, His6-BRD^Baz2B (bromodomain of human Baz2B, wild-type) (human, UniProt Q9UIF8 2054-2168, fluorescent label (Monolith NT Protein Labelling Kit RED-NHS)); assay: MST; 100 nM fluorescently labelled (RED-NHS) BRD^Baz2B, peptide (H3 or H3K14ac) titrated; MST buffer 150 mM Tris-HCl, 50 mM NaCl, 10 mM MgCl2, pH 7.6, 0.0025% Pluronic, 200 ng/ul BSA; 25 C, 20% MST power; at least triplicate; conditions: both partners purified
T2 construct: bromodomain (BRD) of human Baz2B, from plasmid pNIC28-Bsa4-BAZ2B-BRD; also called BAZ2B-BRD; source: E. coli BL21(DE3)-R3-pRARE2, purified (Ni-NTA, Sephadex 75)
T2 sequence: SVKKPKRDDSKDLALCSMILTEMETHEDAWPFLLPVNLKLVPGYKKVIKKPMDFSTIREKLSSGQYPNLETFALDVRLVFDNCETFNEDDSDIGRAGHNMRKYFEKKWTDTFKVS

[4] = target: T3, BRD^Baz2B L2073V (human, UniProt Q9UIF8 2054-2168, L2073V, fluorescent label (Monolith NT Protein Labelling Kit RED-NHS)); assay: as above; conditions: both partners purified
T3 construct: bromodomain (BRD) of human Baz2B with a cancer-associated point mutation, made on pNIC28-Bsa4-BAZ2B-BRD; Same limits as m1; mutation found in pancreatic cancer (COSMIC/ICGC); source: E. coli BL21(DE3)-R3-pRARE2, purified (Ni-NTA, Sephadex 75)
T3 sequence: T2 sequence with L20V

[5] = target: T4, BRD^Baz2B K2098N (human, UniProt Q9UIF8 2054-2168, K2098N, fluorescent label (Monolith NT Protein Labelling Kit RED-NHS)); assay: as above; conditions: both partners purified
T4 construct: bromodomain (BRD) of human Baz2B with a cancer-associated point mutation, made on pNIC28-Bsa4-BAZ2B-BRD; Same limits as m1; mutation found in multiple myeloma; source: E. coli BL21(DE3)-R3-pRARE2, purified (Ni-NTA, Sephadex 75)
T4 sequence: T2 sequence with K45N

[6] = target: T5, BRD^Baz2B L2127V (human, UniProt Q9UIF8 2054-2168, L2127V, fluorescent label (Monolith NT Protein Labelling Kit RED-NHS)); assay: as above; conditions: both partners purified
T5 construct: bromodomain (BRD) of human Baz2B with a cancer-associated point mutation, made on pNIC28-Bsa4-BAZ2B-BRD; Same limits as m1; mutation found in breast cancer; source: E. coli BL21(DE3)-R3-pRARE2, purified (Ni-NTA, Sephadex 75)
T5 sequence: T2 sequence with L74V

[7] = target: T6, BRD^Baz2B T2138I (human, UniProt Q9UIF8 2054-2168, T2138I, fluorescent label (Monolith NT Protein Labelling Kit RED-NHS)); assay: as above; conditions: both partners purified
T6 construct: bromodomain (BRD) of human Baz2B with a cancer-associated point mutation, made on pNIC28-Bsa4-BAZ2B-BRD; Same limits as m1; mutation found in multiple myeloma; source: E. coli BL21(DE3)-R3-pRARE2, purified (Ni-NTA, Sephadex 75)
T6 sequence: T2 sequence with T85I

[8] = target: T7, BRD^Baz2B F2139C (human, UniProt Q9UIF8 2054-2168, F2139C, fluorescent label (Monolith NT Protein Labelling Kit RED-NHS)); assay: as above; conditions: both partners purified
T7 construct: bromodomain (BRD) of human Baz2B with a cancer-associated point mutation, made on pNIC28-Bsa4-BAZ2B-BRD; Same limits as m1; mutation found in endometrial cancer; source: E. coli BL21(DE3)-R3-pRARE2, purified (Ni-NTA, Sephadex 75)
T7 sequence: T2 sequence with F86C

[9] = target: T8, BRD^Baz2B D2143N (human, UniProt Q9UIF8 2054-2168, D2143N, fluorescent label (Monolith NT Protein Labelling Kit RED-NHS)); assay: as above; conditions: both partners purified
T8 construct: bromodomain (BRD) of human Baz2B with a cancer-associated point mutation, made on pNIC28-Bsa4-BAZ2B-BRD; Same limits as m1; mutation found in breast invasive carcinoma; source: E. coli BL21(DE3)-R3-pRARE2, purified (Ni-NTA, Sephadex 75)
T8 sequence: T2 sequence with D90N

Q: Which Kd [1] does the source give for GGGGGGUCAUUUUUGGGGAAACCCUGUCUCUUUCC (structured_RNA) [pRNAmini] here?
A: 288 nM

Q: And the Kd [2]?
A: 136 nM

B1: H3K14ac peptide (Ac-TARKSTGGK(ac)APRKQL-NH2) (peptide)
peptide: Ac-TARKSTGGK(Ac)APRKQL-NH2
notes: N-terminal tail of histone H3, residues 6-20; also called acetylated H3 tail peptide; acetylated at K14 (K14ac) N-terminal H3 histone tail peptide; source: synthetic peptide, bought: alta Bioscience
Q: B1 was tested. Which Kd [3] did it give?
A: 16 µM

Q: And the Kd [4]?
A: 78 µM

Q: And the Kd [5]?
A: 24 µM

Q: What about the Kd [6] of the same binder?
A: 30 µM

Q: What about the Kd [7] of the same binder?
A: 94 µM

Q: And the Kd [8]?
A: 20 µM

Q: What about the Kd [9] of the same binder?
A: 133 µM

From article PMC10783490, “Biochemical and cellular insights into the Baz2B protein, a non-catalytic subunit of the chromatin remodeling complex” (Nucleic Acids Research, 2023)
